# Measured values reported in publication PMC9482650, “Quantitative fragmentomics allow affinity mapping of interactomes” (Nature Communications, 2022).
# Assays:
# Experiment in all cases: holdup assay
# Parameters in all cases: key: below the threshold = too weak to quantify, mostly under pKd 3.1 to 4
# [1] = target: T1, APBA1_1, Q02410
# T1 sequence (Q02410 651-752, limits assumed, looked up): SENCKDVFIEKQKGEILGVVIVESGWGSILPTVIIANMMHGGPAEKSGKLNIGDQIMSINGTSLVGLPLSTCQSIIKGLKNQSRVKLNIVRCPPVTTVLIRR
# [2] = target: ARHGEF12, Q9NZN5-2
# [3] = target: DLG1_2, Q12959
# [4] = target: DLG2_3, Q15700
# [5] = target: DLG5_1, Q8TDM6
# [6] = target: T2, DVL3, Q92997
# T2 sequence (Q92997 244-331, limits assumed, looked up): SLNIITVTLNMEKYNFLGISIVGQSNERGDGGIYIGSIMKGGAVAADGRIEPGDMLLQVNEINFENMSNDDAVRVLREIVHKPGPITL
# [7] = target: T3, GRIP1_2, Q9Y3R0
# T3 sequence (Q9Y3R0 145-248, limits assumed, looked up): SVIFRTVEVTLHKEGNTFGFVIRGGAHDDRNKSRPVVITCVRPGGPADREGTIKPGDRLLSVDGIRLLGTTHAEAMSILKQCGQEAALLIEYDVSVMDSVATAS
# [8] = target: GRIP2_3, Q9C0E4
# [9] = target: T4, HTRA4, P83105
# T4 sequence (P83105 378-476, limits assumed, looked up): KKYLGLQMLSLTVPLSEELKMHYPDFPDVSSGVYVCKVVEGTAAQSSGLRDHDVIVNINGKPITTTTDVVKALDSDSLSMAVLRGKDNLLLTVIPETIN
# [10] = target: IL16_1, Q14005
# [11] = target: Inadl_10, Q8NI35
# [12] = target: Inadl_8, Q8NI35
# [13] = target: LIMK2, P53671
# [14] = target: T5, LIN7C, Q9NUP9
# T5 sequence (Q9NUP9 88-185, limits assumed, looked up): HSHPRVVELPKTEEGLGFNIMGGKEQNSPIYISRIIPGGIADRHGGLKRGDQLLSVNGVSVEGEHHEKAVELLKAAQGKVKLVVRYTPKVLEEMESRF
# [15] = target: MAGI2_2, Q86UL8
# [16] = target: MAGI2_5, Q86UL8
# [17] = target: MAST2, Q6P0Q8
# [18] = target: NHERF4_1, Q86UT5-2
# [19] = target: NHERF4_4, Q86UT5
# [20] = target: T6, RAPGEF6, Q8TEU7
# T6 sequence (Q8TEU7 525-625, limits assumed, looked up): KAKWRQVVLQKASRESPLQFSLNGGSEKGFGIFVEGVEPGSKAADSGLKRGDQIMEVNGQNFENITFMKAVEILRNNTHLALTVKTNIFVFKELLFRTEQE
# [21] = target: T7, RHPN1, Q8TCX5
# T7 sequence (Q8TCX5 508-602, limits assumed, looked up): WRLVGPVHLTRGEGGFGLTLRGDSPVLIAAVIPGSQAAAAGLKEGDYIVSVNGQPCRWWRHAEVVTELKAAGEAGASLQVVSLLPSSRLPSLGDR
# [22] = target: T8, SNTA1, Q13424
# T8 sequence (Q13424 82-180, limits assumed, looked up): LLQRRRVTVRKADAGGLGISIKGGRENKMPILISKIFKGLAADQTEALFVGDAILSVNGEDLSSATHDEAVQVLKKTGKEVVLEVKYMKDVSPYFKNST
# [23] = target: T9, SNTB1, Q13884
# T9 sequence (Q13884 107-205, limits assumed, looked up): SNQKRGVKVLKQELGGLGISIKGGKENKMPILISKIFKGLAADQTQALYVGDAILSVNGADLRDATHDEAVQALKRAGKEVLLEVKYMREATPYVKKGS
# [24] = target: T10, SNTG1, Q9NSN8
# T10 sequence (Q9NSN8 52-150, limits assumed, looked up): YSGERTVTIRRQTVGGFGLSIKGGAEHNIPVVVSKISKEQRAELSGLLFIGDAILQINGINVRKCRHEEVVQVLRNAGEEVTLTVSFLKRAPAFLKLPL
# [25] = target: TJP2_1, Q9UDY2
# [26] = target: T11, TX1BP3, O14907
# T11 sequence (O14907 10-122, limits assumed, looked up): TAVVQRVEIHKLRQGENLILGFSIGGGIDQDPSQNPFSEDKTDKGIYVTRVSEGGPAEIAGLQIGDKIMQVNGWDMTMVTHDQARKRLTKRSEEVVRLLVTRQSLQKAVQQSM
# [27] = plain residues with an end cap or a label only (N-terminal biotin on a linker: ttds)
# [28] = plain residues with an end cap or a label only (N-terminal biotin on a linker: ahx)
# DLG5_1, Q8TDM6, sequence (Q8TDM6 617-713): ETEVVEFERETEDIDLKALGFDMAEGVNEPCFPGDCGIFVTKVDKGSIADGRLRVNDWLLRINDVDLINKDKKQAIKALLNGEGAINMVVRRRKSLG
# NHERF4_1, Q86UT5-2, sequence (Q86UT5 other isoform, or with tags, fused parts or gaps): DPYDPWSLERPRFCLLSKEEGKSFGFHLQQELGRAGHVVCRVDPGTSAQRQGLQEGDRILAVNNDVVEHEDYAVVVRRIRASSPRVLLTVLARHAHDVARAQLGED
# Inadl_10, Q8NI35, sequence (Q8NI35 1673-1763): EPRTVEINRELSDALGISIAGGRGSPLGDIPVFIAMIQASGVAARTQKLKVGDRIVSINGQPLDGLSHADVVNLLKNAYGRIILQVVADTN
# IL16_1, Q14005, sequence (Q14005 210-306): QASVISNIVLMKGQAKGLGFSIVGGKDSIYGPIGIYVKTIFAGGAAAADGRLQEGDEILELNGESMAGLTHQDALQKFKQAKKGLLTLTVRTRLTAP
# Inadl_8, Q8NI35, sequence (Q8NI35 1425-1530): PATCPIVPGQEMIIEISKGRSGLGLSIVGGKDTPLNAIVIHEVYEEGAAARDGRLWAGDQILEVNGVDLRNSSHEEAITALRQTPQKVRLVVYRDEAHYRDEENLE
# MAST2, Q6P0Q8, sequence (Q6P0Q8 1099-1202): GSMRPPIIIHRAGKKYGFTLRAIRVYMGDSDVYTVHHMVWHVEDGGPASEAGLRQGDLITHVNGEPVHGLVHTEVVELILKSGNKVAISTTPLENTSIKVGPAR
# MAGI2_2, Q86UL8, sequence (Q86UL8 410-522): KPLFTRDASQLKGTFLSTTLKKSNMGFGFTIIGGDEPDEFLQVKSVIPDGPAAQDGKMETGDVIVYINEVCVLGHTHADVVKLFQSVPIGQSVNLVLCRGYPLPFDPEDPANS
# GRIP2_3, Q9C0E4, sequence (Q9C0E4 238-339): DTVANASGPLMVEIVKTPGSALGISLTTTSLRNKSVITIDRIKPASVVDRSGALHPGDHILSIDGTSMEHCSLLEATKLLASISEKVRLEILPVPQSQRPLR
# NHERF4_4, Q86UT5, sequence (Q86UT5 464-550): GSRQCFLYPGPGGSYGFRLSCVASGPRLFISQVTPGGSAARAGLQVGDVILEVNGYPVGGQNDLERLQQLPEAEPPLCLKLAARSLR
# DLG1_2, Q12959, sequence (Q12959 314-412): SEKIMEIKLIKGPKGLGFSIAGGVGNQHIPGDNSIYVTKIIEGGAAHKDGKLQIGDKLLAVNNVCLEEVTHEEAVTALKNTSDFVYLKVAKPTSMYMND
# MAGI2_5, Q86UL8, sequence (Q86UL8 915-1017): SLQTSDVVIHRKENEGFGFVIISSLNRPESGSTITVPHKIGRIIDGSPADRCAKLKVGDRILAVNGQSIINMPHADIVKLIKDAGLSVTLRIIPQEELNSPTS
# TJP2_1, Q9UDY2, sequence (Q9UDY2 24-128): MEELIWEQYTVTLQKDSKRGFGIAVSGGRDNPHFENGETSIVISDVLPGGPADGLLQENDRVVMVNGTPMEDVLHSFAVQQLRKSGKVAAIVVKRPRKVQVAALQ
# ARHGEF12, Q9NZN5-2, sequence (Q9NZN5 other isoform, or with tags, fused parts or gaps): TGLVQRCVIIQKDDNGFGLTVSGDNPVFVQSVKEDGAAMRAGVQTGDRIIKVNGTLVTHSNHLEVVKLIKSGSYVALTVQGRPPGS
# LIMK2, P53671, sequence (P53671 143-248): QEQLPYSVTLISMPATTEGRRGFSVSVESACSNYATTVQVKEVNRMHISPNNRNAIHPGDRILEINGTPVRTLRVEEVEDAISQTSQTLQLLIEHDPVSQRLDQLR
binder,measurement,setting,value
"CLDTSRETDL [KCNA5, P22460]",pKd,[1]; [27],below the threshold
same,pKd,[2]; [27],4.32
same,pKd,[3]; [27],4.79
same,pKd,[4]; [27],below the threshold
same,pKd,[5]; [27],below the threshold
same,pKd,[6]; [27],below the threshold
same,pKd,[7]; [27],3.65
same,pKd,[8]; [27],below the threshold
same,pKd,[9]; [27],below the threshold
same,pKd,[10]; [27],3.5
same,pKd,[11]; [27],below the threshold
same,pKd,[12]; [27],below the threshold
same,pKd,[13]; [27],below the threshold
same,pKd,[14]; [27],3.74
same,pKd,[15]; [27],below the threshold
same,pKd,[16]; [27],below the threshold
same,pKd,[17]; [27],5.52
same,pKd,[18]; [27],below the threshold
same,pKd,[19]; [27],below the threshold
same,pKd,[20]; [27],below the threshold
same,pKd,[21]; [27],4.46
same,pKd,[22]; [27],5.34
same,pKd,[23]; [27],5.51
same,pKd,[24]; [27],4.6
same,pKd,[25]; [27],below the threshold
same,pKd,[26]; [27],4.28
"EDEDEQVSAV [RAPGEF2, Q9Y4G8]",pKd,[1]; [28],below the threshold
same,pKd,[2]; [28],3.71
same,pKd,[3]; [28],3.85
same,pKd,[4]; [28],below the threshold
same,pKd,[5]; [28],below the threshold
same,pKd,[6]; [28],below the threshold
same,pKd,[7]; [28],below the threshold
same,pKd,[8]; [28],below the threshold
same,pKd,[9]; [28],below the threshold
same,pKd,[10]; [28],4.17
same,pKd,[11]; [28],below the threshold
same,pKd,[12]; [28],3.86
same,pKd,[13]; [28],below the threshold
same,pKd,[14]; [28],below the threshold
same,pKd,[15]; [28],below the threshold
same,pKd,[16]; [28],4.46
same,pKd,[17]; [28],4.92
same,pKd,[18]; [28],below the threshold
same,pKd,[19]; [28],below the threshold
same,pKd,[20]; [28],below the threshold
same,pKd,[21]; [28],4.23
same,pKd,[22]; [28],3.61
same,pKd,[23]; [28],3.87
same,pKd,[24]; [28],4.29
same,pKd,[25]; [28],below the threshold
same,pKd,[26]; [28],below the threshold
"KKNKDKEYYV [NRXN1, Q9ULB1]",pKd,[1]; [28],below the threshold
same,pKd,[2]; [28],below the threshold
same,pKd,[3]; [28],below the threshold
same,pKd,[4]; [28],below the threshold
same,pKd,[5]; [28],below the threshold
same,pKd,[6]; [28],3.61
same,pKd,[7]; [28],below the threshold
same,pKd,[8]; [28],below the threshold
same,pKd,[9]; [28],below the threshold
same,pKd,[10]; [28],below the threshold
same,pKd,[11]; [28],below the threshold
same,pKd,[12]; [28],below the threshold
same,pKd,[13]; [28],below the threshold
same,pKd,[14]; [28],below the threshold
same,pKd,[15]; [28],3.67
same,pKd,[16]; [28],3.57
same,pKd,[17]; [28],below the threshold
same,pKd,[18]; [28],below the threshold
same,pKd,[19]; [28],below the threshold
same,pKd,[20]; [28],below the threshold
same,pKd,[21]; [28],below the threshold
same,pKd,[22]; [28],below the threshold
same,pKd,[23]; [28],below the threshold
same,pKd,[24]; [28],below the threshold
same,pKd,[25]; [28],below the threshold
same,pKd,[26]; [28],below the threshold
"DEDQHTQITKV [PTEN, P60484]",pKd,[1]; [27],below the threshold
same,pKd,[2]; [27],4.2
same,pKd,[3]; [27],3.97
same,pKd,[4]; [27],below the threshold
same,pKd,[5]; [27],below the threshold
same,pKd,[6]; [27],below the threshold
same,pKd,[8]; [27],3.56
same,pKd,[9]; [27],3.62
same,pKd,[11]; [27],3.58
same,pKd,[12]; [27],4.46
same,pKd,[13]; [27],below the threshold
same,pKd,[14]; [27],below the threshold
same,pKd,[15]; [27],below the threshold
same,pKd,[16]; [27],4.15
same,pKd,[17]; [27],5.24
same,pKd,[18]; [27],3.51
same,pKd,[19]; [27],below the threshold
same,pKd,[20]; [27],below the threshold
same,pKd,[21]; [27],4.36
same,pKd,[22]; [27],4.04
same,pKd,[23]; [27],4.08
same,pKd,[24]; [27],4.01
same,pKd,[25]; [27],below the threshold
same,pKd,[26]; [27],below the threshold
"LCKSHAFSHV [PDLIM7, Q9NR12;Q9NR12-1]",pKd,[1]; [28],below the threshold
same,pKd,[4]; [28],below the threshold
same,pKd,[5]; [28],below the threshold
same,pKd,[6]; [28],below the threshold
same,pKd,[7]; [28],below the threshold
same,pKd,[8]; [28],below the threshold
same,pKd,[9]; [28],below the threshold
same,pKd,[12]; [28],4.1
same,pKd,[13]; [28],below the threshold
same,pKd,[14]; [28],below the threshold
same,pKd,[15]; [28],4.11
same,pKd,[17]; [28],4.21
same,pKd,[18]; [28],below the threshold
same,pKd,[19]; [28],below the threshold
same,pKd,[20]; [28],below the threshold
same,pKd,[21]; [28],4.38
same,pKd,[22]; [28],below the threshold
same,pKd,[23]; [28],below the threshold
same,pKd,[24]; [28],below the threshold
same,pKd,[25]; [28],4.09
same,pKd,[26]; [28],3.95
"GIFPTLTSPL [SHROOM3, Q8TF72]",pKd,[1]; [28],below the threshold
same,pKd,[2]; [28],4.26
same,pKd,[3]; [28],below the threshold
same,pKd,[4]; [28],below the threshold
same,pKd,[5]; [28],below the threshold
same,pKd,[6]; [28],below the threshold
same,pKd,[8]; [28],below the threshold
same,pKd,[9]; [28],below the threshold
same,pKd,[10]; [28],below the threshold
same,pKd,[11]; [28],below the threshold
same,pKd,[12]; [28],below the threshold
same,pKd,[13]; [28],below the threshold
same,pKd,[14]; [28],below the threshold
same,pKd,[15]; [28],below the threshold
same,pKd,[16]; [28],below the threshold
same,pKd,[17]; [28],4.25
same,pKd,[18]; [28],4.15
same,pKd,[19]; [28],below the threshold
same,pKd,[20]; [28],below the threshold
same,pKd,[21]; [28],4.27
same,pKd,[22]; [28],below the threshold
same,pKd,[23]; [28],below the threshold
same,pKd,[24]; [28],below the threshold
same,pKd,[25]; [28],below the threshold
same,pKd,[26]; [28],3.65
